{"source": "paper PMC12887176", "about": "“IRF1 is a context-dependent homeostatic gatekeeper of basal immunity and antiviral readiness”", "binders": {"B1": {"name": "specific DNA (IRF1 consensus) (dsDNA)", "DNA 1": "GAGAAGTGAAAGTACTTTCACTTCTC", "DNA 2": "GAGAAGTGAAAGTACTTTCACTTCTC"}}, "target": "T1, IRF1 DBD-mNeonGreen (UniProt P10914 1-136)", "T1 sequence": "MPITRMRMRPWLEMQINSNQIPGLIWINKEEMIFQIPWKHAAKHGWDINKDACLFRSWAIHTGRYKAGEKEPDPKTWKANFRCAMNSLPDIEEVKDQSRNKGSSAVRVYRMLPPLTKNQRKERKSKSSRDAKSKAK", "assay": "mass photometry; 1:1 protein:DNA; ~45 to ~65 kDa; 1:1 molar protein:DNA, 4 h at room temperature; protein lysed in PBS with 360 mM NaCl, 10% glycerol, DTT (assay buffers and pH not given); PBM: PBS, 360 mM NaCl, 1 mM DTT, 2% milk, 0.2% Triton X-100, room temperature", "settings": "protein: recombinant; tags: mNeonGreen fusion (42 kDa total); blunt"}
{"binder": "B1", "values": [{"measurement": "binding result", "value": "binds"}]}
